Experimental data reported in publication PMC10522485.

Key:
[1] = biological target: CLIP102-120 labeled with FITC (human); test: fluorescence polarisation; equilibrium; empty DR from bacterial expression varied from 4 µM to 7.8125 nM (2-fold dilutions), CLIP-FITC fixed at 100 nM
[2] = biological target: CLIP102-120 labeled with FITC (human); test: fluorescence polarisation; dissociation of 100 nM DR/CLIP-FITC complexes with 20 µM unlabeled CLIP102-120 as competitor, no DM (intrinsic off-rate), 37 °C, phosphate/citrate buffer pH 5.2

empty HLA-DR DRA*01:01/DRB1*01:02 from bacterial expression (complex)
Kd [1]: 325 nM

HLA-DR DRA*01:01/DRB1*13:02, insect cell-expressed (complex)
koff [2]: 0.000148 s⁻¹

empty HLA-DR DRA*01:01(N62A)/DRB1*01:02 from bacterial expression (complex)
Kd [1]: 512 nM

HLA-DR DRA*01:01/DRB1*01:01, insect cell-expressed (complex)
koff [2]: 1.06e-05 s⁻¹

empty HLA-DR DRA*01:01(N62A)/DRB1*01:01 from bacterial expression (complex)
Kd [1]: 1110 nM

HLA-DR DRA*01:01/DRB1*13:01, insect cell-expressed (complex)
koff [2]: 7.9e-05 s⁻¹

HLA-DR DRA*01:01/DRB1*04:04, insect cell-expressed (complex)
koff [2]: 3.22e-05 s⁻¹

HLA-DR DRA*01:01/DRB1*14:01, insect cell-expressed (complex)
koff [2]: 6.27e-05 s⁻¹

empty HLA-DR DRA*01:01/DRB1*01:02(R71A) from bacterial expression (complex)
Kd [1]: 508 nM

empty HLA-DR DRA*01:01/DRB1*01:01 from bacterial expression (complex)
Kd [1]: 414 nM

HLA-DR DRA*01:01/DRB1*15:01, insect cell-expressed (complex)
koff [2]: 0.000223 s⁻¹

HLA-DR DRA*01:01/DRB1*07:01, insect cell-expressed (complex)
koff [2]: 3.25e-05 s⁻¹

HLA-DR DRA*01:01/DRB1*03:01, insect cell-expressed (complex)
koff [2]: 0.000317 s⁻¹

HLA-DR DRA*01:01/DRB1*08:02, insect cell-expressed (complex)
koff [2]: 1.01e-05 s⁻¹

empty HLA-DR DRA*01:01/DRB1*01:01(R71A) from bacterial expression (complex)
Kd [1]: 1360 nM

HLA-DR DRA*01:01/DRB1*04:01, insect cell-expressed (complex)
koff [2]: 4.23e-05 s⁻¹

HLA-DR DRA*01:01/DRB1*01:02, insect cell-expressed (complex)
koff [2]: 2.45e-05 s⁻¹

HLA-DR DRA*01:01/DRB1*08:01, insect cell-expressed (complex)
koff [2]: 6.88e-05 s⁻¹
